US20230212319A1, “NOVEL ANTIGEN BINDING DOMAINS AND SYNTHETIC ANTIGEN RECEPTORS INCORPORATING THE SAME” (University of Southern California, priority 2020, published 2023)

B1: 22224 (protein)
chain: MALPVTALLLPLALLLHAARPDIQMTQSPSSLSASVGDRVTITCKASDHINNWLAWYQQKPGQAPKLLIYGATTLETGVPSRFSGSGSGTDYTLTISSLQPEDFATYYCQQSWNTPWTFGQGTKLEIKRLEDLKNVFPPEVAVFEPSEAEISHTQKATLVCLATGFYPDHVELSWWVNGKEVHSGVCTDPQPLKEQPALNDSRYCLSSRLRVSATFWQNPRNHFRCQVQFYGLSENDEWTQDRAKPVTQIVSAEAWGRADCGFTSESYQQGVLSATILYEILLGKATLYAVLVSALVLMAMVKRKDSRGRAKRSGSGATNFSLLKQAGDVEENPGPTSATMDWIWRILFLVGAATGAHSGPEVQLVESGGGLVQAGGSLRLSCAASGRTFTMGWFRQAPGKEREFVAAISLSPTLAYYADSVKGRFTISRDNAKNTVVLQMNSLKPEDTALYYCAADRKSVMSIRPDYWGQGTQVTVSSGSALRRLLGLFGFEQVQLQQPGAELVKPGASVKMSCKASGYAFSSYWINWMKQKPGQGLEWIGQIYPGDGDTNYNGKFKGRATLTADTSSSTAYMQLSSLTSEDSAVYFCARSITTVVGCAMDYWGQGTSVTVSSTRIQNPDPAVYQLRDSKSSDKSVCLFTDFDSQTNVSQSKDSDVYITDKCVLDMRSMDFKSNSAVAWSNKSDFACANAFNNSIIPEDTFFPSPESSCDVKLVEKSFETDTNLNFQNLSVIGFRILLLKVAGFNLLMTLRLWSSRAKRSGSGVKQTLNFDLLKLAGDVESNPGPSRGHMTEYKPTVRLATRDDVPRAVRTLAAAFADYPATRHTVDPDRHIERVTELQELFLTRVGLDIGKVWVADDGAAVAVWTTPESVEAGAVFAEIGPRMAELSGSRLAAQQQMEGLLAPHRPKEPAWFLATVGVSPDHQGKGLGSAVVLPGVEAAERAGVPAFLETSAPRNLPFYERLGFTVTADVEVPEGPRTWCMTRKPGA
B2: 22217 (protein)
chain: MALPVTALLLPLALLLHAARPACEVQLLESGGGLIQPGGSLRLSCAASGFTFSSHAMTWVRQAPGKGLEWVSAISGSGDYTHYADSVKGRFTISRDNSKNTVYLQMNSLRAEDSAVYYCAKDEDGGSLLGHRGQGTLVTVSSGTGAVVRGAEFDIQMTQSPSSLSASVGDRVTITCKASDHINNWLAWYQQKPGQAPKLLIYGATTLETGVPSRFSGSGSGTDYTLTISSLQPEDFATYYCQQSWNTPWTFGQGTKLEIKRLEDLKNVFPPEVAVFEPSKAEIAHTQKATLVCLATGFYPDHVELSWWVNGKEVHSGVCTDPQPLKEQPALNDSRYCLSSRLRVSATFWQNPRNHFRCQVQFYGLSENDEWTQDRAKPVTQIVSAEAWGRADCGITSASYHQGVLSATILYEILLGKATLYAVLVSALVLMAMVKRKDSRGRAKRSGSGATNFSLLKQAGDVEENPGPTSATMDWIWRILFLVGAATGAHSGPEVQLVESGGGLVQAGGSLRLSCAASGRTFSMGWFRQAPGKEREFVAAITYSGGSPYYADSVKGRFTISRDNAKNTVYLQMNSLKPEDTAVYYCAANPTYGSDWNAENWGQGTQVTVSSGSGGGGSGGGGSGGGGSFEQVQLQQPGAELVKPGASVKMSCKASGYAFSSYWINWMKQKPGQGLEWIGQIYPGDGDTNYNGKFKGRATLTADTSSSTAYMQLSSLTSEDSAVYFCARSITTVVGCAMDYWGQGTSVTVSSTRIQNPDPAVYQLRDSKSSDKSVCLFTDFDSQTNVSQSKDSDVYITDKCVLDMRSMDFKSNSAVAWSNKSDFACANAFNNSIIPEDTFFPSPESSCDVKLVEKSFETDTNLNFQNLSVIGFRILLLKVAGFNLLMTLRLWSSRAKRSGSGVKQTLNFDLLKLAGDVESNPGPSRGHMTEYKPTVRLATRDDVPRAVRTLAAAFADYPATRHTVDPDRHIERVTELQELFLTRVGLDIGKVWVADDGAAVAVWTTPESVEAGAVFAEIGPRMAELSGSRLAAQQQMEGLLAPHRPKEPAWFLATVGVSPDHQGKGLGSAVVLPGVEAAERAGVPAFLETSAPRNLPFYERLGFTVTADVEVPEGPRTWCMTRKPGA
B3: 22220 (protein)
chain: MALPVTALLLPLALLLHAARPACEVQLLESGGGLIQPGGSLRLSCAASGFTFSSHAMTWVRQAPGKGLEWVSAISGSGDYTHYADSVKGRFTISRDNSKNTVYLQMNSLRAEDSAVYYCAKDEDGGSLLGHRGQGTLVTVSSGTGAIGFLRTAEFDIQMTQSPSSLSASVGDRVTITCKASDHINNWLAWYQQKPGQAPKLLIYGATTLETGVPSRFSGSGSGTDYTLTISSLQPEDFATYYCQQSWNTPWTFGQGTKLEIKRLEDLKNVFPPEVAVFEPSKAEIAHTQKATLVCLATGFYPDHVELSWWVNGKEVHSGVCTDPQPLKEQPALNDSRYCLSSRLRVSATFWQNPRNHFRCQVQFYGLSENDEWTQDRAKPVTQIVSAEAWGRADCGITSASYHQGVLSATILYEILLGKATLYAVLVSALVLMAMVKRKDSRGRAKRSGSGATNFSLLKQAGDVEENPGPTSATMDWIWRILFLVGAATGAHSGPEVQLVESGGGLVQAGGSLRLSCAASGRTFSMGWFRQAPGKEREFVAAITYSGGSPYYADSVKGRFTISRDNAKNTVYLQMNSLKPEDTAVYYCAANPTYGSDWNAENWGQGTQVTVSSGSGGGGSGGGGSGGGGSFEQVQLQQPGAELVKPGASVKMSCKASGYAFSSYWINWMKQKPGQGLEWIGQIYPGDGDTNYNGKFKGRATLTADTSSSTAYMQLSSLTSEDSAVYFCARSITTVVGCAMDYWGQGTSVTVSSTRIQNPDPAVYQLRDSKSSDKSVCLFTDFDSQTNVSQSKDSDVYITDKCVLDMRSMDFKSNSAVAWSNKSDFACANAFNNSIIPEDTFFPSPESSCDVKLVEKSFETDTNLNFQNLSVIGFRILLLKVAGFNLLMTLRLWSSRAKRSGSGVKQTLNFDLLKLAGDVESNPGPSRGHMTEYKPTVRLATRDDVPRAVRTLAAAFADYPATRHTVDPDRHIERVTELQELFLTRVGLDIGKVWVADDGAAVAVWTTPESVEAGAVFAEIGPRMAELSGSRLAAQQQMEGLLAPHRPKEPAWFLATVGVSPDHQGKGLGSAVVLPGVEAAERAGVPAFLETSAPRNLPFYERLGFTVTADVEVPEGPRTWCMTRKPGA
B4: 22245 (protein)
chain: MALPVTALLLPLALLLHAARPACEVQLLESGGGLIQPGGSLRLSCAASGFTFSSHAMTWVRQAPGKGLEWVSAISGSGDYTHYADSVKGRFTISRDNSKNTVYLQMNSLRAEDSAVYYCAKDEDGGSLLGHRGQGTLVTVSSGTGAIGFLRTAEFDIQMTQSPSSLSASVGDRVTITCKASDHINNWLAWYQQKPGQAPKLLIYGATTLETGVPSRFSGSGSGTDYTLTISSLQPEDFATYYCQQSWNTPWTFGQGTKLEIKRLEDLKNVFPPEVAVFEPSKAEIAHTQKATLVCLATGFYPDHVELSWWVNGKEVHSGVCTDPQPLKEQPALNDSRYCLSSRLRVSATFWQNPRNHFRCQVQFYGLSENDEWTQDRAKPVTQIVSAEAWGRADCGITSASYHQGVLSATILYEILLGKATLYAVLVSALVLMAMVKRKDSRGRAKRSGSGATNFSLLKQAGDVEENPGPTSATMDWIWRILFLVGAATGAHSGPEVQLVESGGGLVQAGGSLRLSCAASGRTFSMGWFRQAPGKEREFVAAITYSGGSPYYADSVKGRFTISRDNAKNTVYLQMNSLKPEDTAVYYCAANPTYGSDWNAENWGQGTQVTVSSGSGGGGSGGGGSGGGGSFEQVQLQQPGAELVKPGASVKMSCKASGYAFSSYWINWMKQKPGQGLEWIGQIYPGDGDTNYNGKFKGRATLTADTSSSTAYMQLSSLTSEDSAVYFCARSITTVVGCAMDYWGQGTSVTVSSTRIQNPDPAVYQLRDSKSSDKSVCLFTDFDSQTNVSQSKDSDVYITDKCVLDMRSMDFKSNSAVAWSNKSDFACANAFNNSIIPEDTFFPSPESSCDVKLVEKSFETDTNLNFQNLSVIGFRILLLKVAGFNLLMTLRLWSSRAKRSGSGVKQTLNFDLLKLAGDVESNPGPSRGHMTEYKPTVRLATRDDVPRAVRTLAAAFADYPATRHTVDPDRHIERVTELQELFLTRVGLDIGKVWVADDGAAVAVWTTPESVEAGAVFAEIGPRMAELSGSRLAAQQQMEGLLAPHRPKEPAWFLATVGVSPDHQGKGLGSAVVLPGVEAAERAGVPAFLETSAPRNLPFYERLGFTVTADVEVPEGPRTWCMTRKPGA

How the values were obtained:
Assay type in all cases: cell-based
[1] = test system: L363 cells; experiment: JNG assay, co-culture with L363 cells; details: co-culture with L363
Outline: (§1)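 Read-out is NFAT-driven GFP measured by flow cytometry after ~4–18 h co-culture of SAR-expressing JNG cells with target cells (E:T about 1:2). SARs were introduced by lentiviral spinfection and selected with puromycin or blasticidin when possible; scores (+/- to 5+ ≈ 5–50% GFP+) are relative to parental JNG cells.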

[2] = test system: U266 cells; experiment: JNG NFAT-GFP induction on co-culture with U266
[3] = test system: RAJI cells; experiment: JNG assay, co-culture with RAJI cells; details: JNG cells expressing construct, co-culture with Raji
Outline: as §1

[4] = test system: RAJI-CD19-KO cells; experiment: JNG assay, co-culture with RAJI-CD19-KO cells; details: co-culture with Raji-CD19-KO
Outline: as §1

[5] = test system: Nalm6 cells; experiment: JNG assay, co-culture with Nalm6 cells; details: co-culture with Nalm6
Outline: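 Read-out: % GFP-positive cells by flow cytometry after ~4 to 18 h coculture of SAR-transduced JNG cells with targets (E:T about 1:2). Scores reflect GFP induction above parental JNG controls: +/- ≈5%, + ≈10%, up to 5+ ≈50%.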

| Molecule | NFAT-GFP ASSAY: L363 [1] | NFAT-GFP ASSAY: U266 [2] | NFAT-GFP ASSAY: Raji [3] | NFAT-GFP ASSAY: Raji-CD19-KO [4] | NFAT-GFP ASSAY: Nalm6 [5] |
| --- | --- | --- | --- | --- | --- |
| B1 | 2+ (refer to approximately 5%, 10%, 20%, 30%, 40% and 50% GFP positive cells) | 4+ (refer to approximately 5%, 10%, 20%, 30%, 40% and 50% GFP positive cells) | + (refer to approximately 5%, 10%, 20%, 30%, 40% and 50% GFP positive cells) | 2+ (refer to approximately 5%, 10%, 20%, 30%, 40% and 50% GFP positive cells) | – |
| B2 | 3+ (refer to approximately 5%, 10%, 20%, 30%, 40% and 50% GFP positive cells) | 4+ (refer to approximately 5%, 10%, 20%, 30%, 40% and 50% GFP positive cells) | + (refer to approximately 5%, 10%, 20%, 30%, 40% and 50% GFP positive cells) | 3+ (refer to approximately 5%, 10%, 20%, 30%, 40% and 50% GFP positive cells) | 4+ (refer to approximately 5%, 10%, 20%, 30%, 40% and 50% GFP positive cells) |
| B3 | +/- (refer to approximately 5%, 10%, 20%, 30%, 40% and 50% GFP positive cells) | + (refer to approximately 5%, 10%, 20%, 30%, 40% and 50% GFP positive cells) | – | + (refer to approximately 5%, 10%, 20%, 30%, 40% and 50% GFP positive cells) | +/- (refer to approximately 5%, 10%, 20%, 30%, 40% and 50% GFP positive cells) |
| B4 | +/- (refer to approximately 5%, 10%, 20%, 30%, 40% and 50% GFP positive cells) | + (refer to approximately 5%, 10%, 20%, 30%, 40% and 50% GFP positive cells) | – | + (refer to approximately 5%, 10%, 20%, 30%, 40% and 50% GFP positive cells) | +/- (refer to approximately 5%, 10%, 20%, 30%, 40% and 50% GFP positive cells) |
